# Measured values published in publication PMC2192206.
# Molecular target: lymphocyte function associated-1 (LFA-1, CD11a/CD18) (UniProt P20701)
# Experiment: radioligand binding
# lymphocyte function associated-1 (LFA-1, CD11a/CD18), sequence (P20701 26-1170, chain 1 of 2): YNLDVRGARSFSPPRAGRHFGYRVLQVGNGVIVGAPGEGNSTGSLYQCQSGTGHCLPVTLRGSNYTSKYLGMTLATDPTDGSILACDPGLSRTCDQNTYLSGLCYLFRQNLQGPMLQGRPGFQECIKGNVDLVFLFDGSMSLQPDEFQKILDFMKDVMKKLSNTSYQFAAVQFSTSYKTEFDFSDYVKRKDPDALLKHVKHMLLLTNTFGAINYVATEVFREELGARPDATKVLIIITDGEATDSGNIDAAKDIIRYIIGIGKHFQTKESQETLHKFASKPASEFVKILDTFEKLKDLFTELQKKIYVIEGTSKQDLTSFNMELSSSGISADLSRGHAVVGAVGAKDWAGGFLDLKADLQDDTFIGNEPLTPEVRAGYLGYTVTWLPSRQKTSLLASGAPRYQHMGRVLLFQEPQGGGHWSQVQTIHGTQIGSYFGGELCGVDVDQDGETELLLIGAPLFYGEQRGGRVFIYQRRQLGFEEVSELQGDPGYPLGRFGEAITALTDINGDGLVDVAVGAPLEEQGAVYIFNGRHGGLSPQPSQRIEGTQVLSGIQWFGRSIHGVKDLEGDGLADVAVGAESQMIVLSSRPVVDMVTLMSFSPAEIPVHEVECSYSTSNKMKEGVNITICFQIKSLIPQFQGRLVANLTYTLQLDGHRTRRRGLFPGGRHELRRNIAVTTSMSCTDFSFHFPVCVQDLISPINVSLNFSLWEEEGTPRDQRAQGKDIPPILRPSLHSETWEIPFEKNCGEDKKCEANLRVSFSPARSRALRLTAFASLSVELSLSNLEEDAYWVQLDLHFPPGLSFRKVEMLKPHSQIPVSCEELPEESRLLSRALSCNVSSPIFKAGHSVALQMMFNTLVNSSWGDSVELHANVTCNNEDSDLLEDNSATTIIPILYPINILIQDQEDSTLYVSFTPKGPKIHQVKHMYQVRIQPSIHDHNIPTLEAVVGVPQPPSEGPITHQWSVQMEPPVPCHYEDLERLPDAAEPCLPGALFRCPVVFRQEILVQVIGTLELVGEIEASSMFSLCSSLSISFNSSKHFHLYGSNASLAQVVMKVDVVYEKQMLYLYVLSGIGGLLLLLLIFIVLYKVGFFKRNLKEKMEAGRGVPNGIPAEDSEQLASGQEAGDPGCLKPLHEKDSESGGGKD
# lymphocyte function associated-1 (LFA-1, CD11a/CD18), sequence (P05107 23-769, chain 2 of 2, further chain): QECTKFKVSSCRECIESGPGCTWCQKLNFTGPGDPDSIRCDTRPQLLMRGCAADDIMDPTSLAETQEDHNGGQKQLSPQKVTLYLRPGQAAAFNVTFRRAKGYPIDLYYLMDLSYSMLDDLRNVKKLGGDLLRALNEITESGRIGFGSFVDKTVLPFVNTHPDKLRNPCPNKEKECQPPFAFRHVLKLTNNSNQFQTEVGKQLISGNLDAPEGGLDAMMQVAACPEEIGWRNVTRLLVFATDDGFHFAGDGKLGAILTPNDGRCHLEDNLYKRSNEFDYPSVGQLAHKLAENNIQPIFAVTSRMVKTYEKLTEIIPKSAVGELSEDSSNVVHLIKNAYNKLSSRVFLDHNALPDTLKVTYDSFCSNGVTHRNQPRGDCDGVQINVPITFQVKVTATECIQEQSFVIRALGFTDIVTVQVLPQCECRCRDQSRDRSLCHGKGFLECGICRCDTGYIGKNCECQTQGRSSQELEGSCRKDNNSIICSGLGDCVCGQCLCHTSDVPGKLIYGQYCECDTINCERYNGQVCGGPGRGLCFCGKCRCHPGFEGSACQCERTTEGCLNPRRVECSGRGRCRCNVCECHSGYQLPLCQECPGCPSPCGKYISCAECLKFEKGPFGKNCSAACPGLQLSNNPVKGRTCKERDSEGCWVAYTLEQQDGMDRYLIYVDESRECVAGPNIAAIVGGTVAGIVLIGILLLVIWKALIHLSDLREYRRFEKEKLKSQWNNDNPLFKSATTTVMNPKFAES
substance,measurement,value
ICAM-1-HA dimer (from UniProt P05362 28-480) (complex),KD of the high affinity component,8 nM
